# From patent US20250034271A1 (EUCURE BEIJING BIOPHARMA, published 2025)
# B1: mouse anti-hCD40 antibody 07-4H6 (antibody, V domains shown)
# VH: EVKLQESGPSLVKPSQTLSLTCSVTGDSVSSGYWNWIRKFPGNKLEYMGFISYSGSTYYTPSLKSRISITRDTSKNQFYLQLNSVTTEDTATYFCARFRRYDDGVDYWGQGTTLTVSS
# VL: DIQMTQSPSSLSASLGERVSLTCRASHEISGYLSWIQQKPDGTIKRLINAASTLASGVPKRFSGSRSGSEYSLTINSLESEDFADYYCLQYSSYPWTFGGGTKLEIK
# notes: Mouse antibody purified from ascites
# B2: 4H6-mHvKv-IgG1 (antibody, V domains shown)
# VH: EVKLQESGPSLVKPSQTLSLTCSVTGDSVSSGYWNWIRKFPGNKLEYMGFISYSGSTYYTPSLKSRISITRDTSKNQFYLQLNSVTTEDTATYFCARFRRYDDGVDYWGQGTTLTVSS
# VL: DIQMTQSPSSLSASLGERVSLTCRASHEISGYLSWIQQKPDGTIKRLINAASTLASGVPKRFSGSRSGSEYSLTINSLESEDFADYYCLQYSSYPWTFGGGTKLEIK
# notes: Chimeric
# B3: 4H6-H3K2-IgG4 (antibody, V domains shown)
# VH: EVQLQESGPGLVKPSQTLSLTCTVSGDSVSSGYWNWIRKHPGKKLEYMGFISYSGSTYYTPSLKSRITISRDTSKNQFSLKLSSVTAADTAVYFCARFRRYDDGVDYWGQGTLVTVSS
# VL: DIQMTQSPSAMSASVGDRVTITCRASHEISGYLSWIQQKPGGTIKRLINAASTLASGVPSRFSGSRSGTEFTLTISSLQPEDFADYYCLQYSSYPWTFGGGTKLEIK
# notes: Humanized
# B4: 4H6-H4K2-IgG4 (antibody, V domains shown)
# VH: EVQLQESGPGLVKPSQTLSLTCTVSGDSVSSGYWNWIRKFPGKKLEYMGFISYSGSTYYTPSLKSRITISRDTSKNQFSLKLSSVTAADTAVYFCARFRRYDDGVDYWGQGTLVTVSS
# VL: DIQMTQSPSAMSASVGDRVTITCRASHEISGYLSWIQQKPGGTIKRLINAASTLASGVPSRFSGSRSGTEFTLTISSLQPEDFADYYCLQYSSYPWTFGGGTKLEIK
# notes: Humanized
# B5: mouse anti-hCD40 antibody 06-6A7 (antibody, V domains shown)
# VH: QVQLQQPGAELVKPGASVKLSCKASGYTFISYYIYWVKQRPGQGLEWIGGINPRNGGTNFNEKFKSKATLTVDKSSSTAYMQLSSLTSEDSAVYYCTRHGNGVYWGQGTTLTVSS
# VL: DVVMTQTPLSLPVSLGDQASISCRSSQSLLHSNGNTYLHWYLQKPGQSPNHLIYQVSNRFSGVPDRFSGSGSGTDFTLKISRVEAEDLGVYFCSQTTHVPWTFGGGTKLEIK
# notes: as for B1
# B6: 6A7-H3K3-IgG4 (antibody, V domains shown)
# VH: QVQLVQSGAEVKKPGASVKVSCKASGYTFISYYIYWVRQAPGQGLEWIGGINPRNGGTNFNEKFKSRATLTVDTSISTAYMELSRLRSEDTAVYYCTRHGNGVYWGQGTTVTVSS
# VL: DVVMTQSPLSLPVTLGDPASISCRSSQSLLHSNGNTYLHWYQQRPGQSPNHLIYQVSNRFSGVPDRFSGSGSGTDFTLKISRVEAEDVGVYFCSQTTHVPWTFGGGTKLEIK
# notes: Humanized
# B7: 6A7-H4K2-IgG4 (antibody, V domains shown)
# VH: QVQLVQSGAEVKKPGASVKLSCKASGYTFISYYIYWVKQAPGQGLEWIGGINPRNGGTNFNEKFKSRATLTVDTSISTAYMELSRLRSEDTAVYYCTRHGNGVYWGQGTTLTVSS
# VL: DVVMTQSPLSLPVTLGQPASISCRSSQSLLHSNGNTYLHWYQQRPGQSPNHLIYQVSNRFSGVPDRFSGSGSGTDFTLKISRVEAEDVGVYFCSQTTHVPWTFGGGTKVEIK
# notes: Humanized
# Columns and labels:
# [1] = target: T1, mouse CD40 (mCD40) on transfected CHO cells (mouse, UniProt P27512 20-289); assay: flow cytometry, CHO-mCD40 cells, anti-mIgG Fc-FITC
# T1 sequence: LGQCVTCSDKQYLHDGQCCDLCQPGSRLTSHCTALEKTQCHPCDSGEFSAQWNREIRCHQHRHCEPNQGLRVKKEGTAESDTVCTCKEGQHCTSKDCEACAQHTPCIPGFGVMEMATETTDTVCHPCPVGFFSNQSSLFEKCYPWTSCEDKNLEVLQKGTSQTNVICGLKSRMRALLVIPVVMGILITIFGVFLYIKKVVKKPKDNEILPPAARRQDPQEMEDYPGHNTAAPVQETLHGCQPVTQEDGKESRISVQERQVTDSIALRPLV
# Procedure: (§1) 25 μl CHO cells were added to each well. 25 μl purified anti-hCD40 antibodies (1 μg/ml) (7F10, 6A7, or 4H6) were added to each well and were incubated at 4° C. for 30 minutes.
# (§2) After being washed with PBS (1200 rmp, 5 min) twice, 50 μl of FITC labeled anti-mouse IgG Fc antibody (anti-mIgG Fc-FITC) was added into each well 1:100 dilution, followed by incubated at 4° C. for 30 minutes, and then PBS wash (1200 rmp, 5 min). The signals for FITC were detected by flow cytometry.
# [2] = target: T1, mouse CD40 (mCD40) on transfected CHO …; assay: flow cytometry, CHO-mCD40 cells, antibody 1 µg/ml, anti-mIgG Fc-FITC; x: Anti-mouse-IgG-Fc-FITC, y: SSC-H
# Procedure: as §1, §2
# [3] = target: T2, monkey (rhesus macaque) CD40 (rmCD40) on transfected CHO cells (rhesus macaque, UniProt P25942 21-277 (human entry)); assay: flow cytometry, CHO-rmCD40 cells, antibody 1 µg/ml, anti-mIgG Fc-FITC; x: Anti-mouse-IgG-Fc-FITC, y: SSC-H
# T2 construct: also called monkey CD40
# T2 chain: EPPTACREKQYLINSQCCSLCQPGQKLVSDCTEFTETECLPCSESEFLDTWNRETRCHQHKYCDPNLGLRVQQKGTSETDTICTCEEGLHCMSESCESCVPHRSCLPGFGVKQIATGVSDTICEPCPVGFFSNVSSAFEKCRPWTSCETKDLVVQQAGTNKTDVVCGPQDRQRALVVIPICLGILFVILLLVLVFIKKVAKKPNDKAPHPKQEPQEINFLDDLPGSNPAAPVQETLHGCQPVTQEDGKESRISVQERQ
# Procedure: as §1, §2
# [4] = target: T3, chimeric (mouse and human) CD40 (chiCD40) on transfected CHO cells (chimeric (mouse and human)); assay: flow cytometry, CHO-chiCD40 cells, antibody 1 µg/ml, anti-mIgG Fc-FITC; x: Anti-mouse-IgG-Fc-FITC, y: SSC-H
# T3 construct: also called human-mouse chimeric CD40; chimeric CD40
# Procedure: as §1, §2
# [5] = target: T4, human CD40 (hCD40) on transiently transfected CHO cells (human, UniProt P25942 21-277); assay: flow cytometry, CHO cells with hCD40, antibody titrated then hCD40L-hFc added (blocked ligand: hCD40L-hFc); y: hCD40 Ligand-hFc, x: Anti-mouse-IgG-Fc-PE
# T4 construct: also called TNF Receptor Superfamily Member 5; TNFRSF5
# Procedure: The anti-hCD40 antibodies were collected from mouse ascites fluid and purified by chromatography. 25 μl CHO cells transiently transfected with human CD40 were added to each well in a plate. The purified antibodies were titrated to final concentrations of 50, 5, 0.5, 0.05, and 0.005 μg/ml. The titrated antibodies were added to each well at 25 μl per well at 4° C. and incubated for 30 minutes.
# hCD40 ligand-hFc was expressed by H293T cells. 50 μl of hCD40L-hFc was added to each well (1:500). The cells with hCD40L-hFc and the antibodies were incubated at 4° C. for 15 minutes.
# After being washed with phosphate-buffered saline (PBS) twice, 50 μl of PE labeled anti-mouse IgG Fc antibody (anti-mIgG Fc-PE) at 1:500 dilution and FITC-labeled anti-human IgG Fc antibody (anti-hIgG Fc-FITC) at 1:100 dilution were added into each well, and incubated for 30 minutes at 4° C., followed by PBS wash. The signals for FITC and PE were determined by flow cytometry.
# [6] = target: T5, Histidine-tagged human CD40 protein (hCD40-His) (human, UniProt P25942 21-193); assay: SPR, Biacore T200; antibody on Protein A chip, hCD40-His injected; 1:1 fit
# T5 construct: not shown: histidine tag
# Procedure: The binding affinity of the anti-hCD40 antibodies were measured using surface plasmon resonance (SPR) using Biacore (Biacore, INC, Piscataway N.J.) T200 biosensor equipped with pre-immobilized Protein A sensor chips.
# (§3) Anti-hCD40 antibodies were collected by transfecting CHO-S cells and then purified. The antibodies (1 μg/mL) were injected into Biacore T200 biosensor at 10 μL/min for about 24-33 seconds to achieve to a desired protein density (about 44-57 response units (RU)). […] Dissociation was monitored for 300 seconds. The chip was regenerated after the last injection of each titration with Glycine (pH 2.0, 30 μL/min for 12 seconds).
# [7] = target: T6, Histidine-tagged mfCD40 protein (mfCD40-His), Macaca fascicularis (Macaca fascicularis, UniProt G7PG38 21-193); assay: SPR, Biacore T200; antibody on Protein A chip, mfCD40-His injected; 1:1 fit
# T6 construct: not shown: histidine tag
# Procedure: The binding affinity of the anti-hCD40 antibodies with mfCD40 (Macaca fascicularis) were measured using surface plasmon resonance (SPR) using Biacore (Biacore, INC, Piscataway N.J.) T200 biosensor equipped with pre-immobilized Protein A sensor chips.
# as §3, with “were” for “were collected by transfecting CHO-S cells and then”, “(0.5” for “(1”, “18-26” for “24-33”, “44-58” for “44-57”, “300-600” for “300”
# T5 sequence (P25942 21-193 limits assumed): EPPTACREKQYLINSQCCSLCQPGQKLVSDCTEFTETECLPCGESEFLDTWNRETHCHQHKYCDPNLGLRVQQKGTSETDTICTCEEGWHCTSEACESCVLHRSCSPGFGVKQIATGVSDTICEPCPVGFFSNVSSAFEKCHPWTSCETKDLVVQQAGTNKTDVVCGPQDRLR
binder,measurement,setting,value
B1,binding result,[1],no binding
same,% cells in the Anti-mouse-IgG-Fc-FITC positive gate,[2],1.56%
same,% cells in the Anti-mouse-IgG-Fc-FITC positive gate,[3],88.5%
same,% cells in the Anti-mouse-IgG-Fc-FITC positive gate,[4],87.8%
same,% cells lower left (ligand- / antibody-) at 0.005µg/mL,[5],35.7%
same,% cells lower left (ligand- / antibody-) at 0.05µg/mL,[5],16.8%
same,% cells lower left (ligand- / antibody-) at 0.5µg/mL,[5],11.1%
same,% cells lower left (ligand- / antibody-) at 5µg/mL,[5],11.4%
same,% cells lower left (ligand- / antibody-) at 50µg/mL,[5],7.76%
same,% cells lower right (ligand- / antibody+) at 0.005µg/mL,[5],3.7%
same,% cells lower right (ligand- / antibody+) at 0.05µg/mL,[5],26.9%
same,% cells lower right (ligand- / antibody+) at 0.5µg/mL,[5],63.6%
same,% cells lower right (ligand- / antibody+) at 5µg/mL,[5],80.8%
same,% cells lower right (ligand- / antibody+) at 50µg/mL,[5],83.7%
same,% cells upper left (ligand+ / antibody-) at 0.005µg/mL,[5],1.95%
same,% cells upper left (ligand+ / antibody-) at 0.05µg/mL,[5],0%
same,% cells upper left (ligand+ / antibody-) at 0.5µg/mL,[5],0%
same,% cells upper left (ligand+ / antibody-) at 5µg/mL,[5],0%
same,% cells upper left (ligand+ / antibody-) at 50µg/mL,[5],0.185%
same,% cells upper right (ligand+ / antibody+) at 0.005µg/mL,[5],58.7%
same,% cells upper right (ligand+ / antibody+) at 0.05µg/mL,[5],56.4%
same,% cells upper right (ligand+ / antibody+) at 0.5µg/mL,[5],25.4%
same,% cells upper right (ligand+ / antibody+) at 5µg/mL,[5],7.75%
same,% cells upper right (ligand+ / antibody+) at 50µg/mL,[5],8.32%
B2,Kd,[6],36.5 nM
same,koff,[6],0.0205 s⁻¹
same,kon,[6],561000 M⁻¹ s⁻¹
B3,Kd,[6],53.6 nM
same,koff,[6],0.0215 s⁻¹
same,kon,[6],401000 M⁻¹ s⁻¹
same,Kd,[7],33.6 nM
same,koff,[7],0.0192 s⁻¹
same,kon,[7],570000 M⁻¹ s⁻¹
B4,Kd,[6],48.7 nM
same,koff,[6],0.0191 s⁻¹
same,kon,[6],392000 M⁻¹ s⁻¹
same,Kd,[7],29.7 nM
same,koff,[7],0.0169 s⁻¹
same,kon,[7],568000 M⁻¹ s⁻¹
B5,binding result,[1],no binding
same,% cells in the Anti-mouse-IgG-Fc-FITC positive gate,[2],1.16%
same,% cells in the Anti-mouse-IgG-Fc-FITC positive gate,[3],96.4%
same,% cells in the Anti-mouse-IgG-Fc-FITC positive gate,[4],94.6%
same,% cells lower left (ligand- / antibody-) at 0.005µg/mL,[5],41.2%
same,% cells lower left (ligand- / antibody-) at 0.05µg/mL,[5],14.9%
same,% cells lower left (ligand- / antibody-) at 0.5µg/mL,[5],3.18%
same,% cells lower left (ligand- / antibody-) at 5µg/mL,[5],6.37%
same,% cells lower left (ligand- / antibody-) at 50µg/mL,[5],7.92%
same,% cells lower right (ligand- / antibody+) at 0.005µg/mL,[5],4.1%
same,% cells lower right (ligand- / antibody+) at 0.05µg/mL,[5],31.6%
same,% cells lower right (ligand- / antibody+) at 0.5µg/mL,[5],45.1%
same,% cells lower right (ligand- / antibody+) at 5µg/mL,[5],67.8%
same,% cells lower right (ligand- / antibody+) at 50µg/mL,[5],69.7%
same,% cells upper left (ligand+ / antibody-) at 0.005µg/mL,[5],1.44%
same,% cells upper left (ligand+ / antibody-) at 0.05µg/mL,[5],0%
same,% cells upper left (ligand+ / antibody-) at 0.5µg/mL,[5],0%
same,% cells upper left (ligand+ / antibody-) at 5µg/mL,[5],0%
same,% cells upper left (ligand+ / antibody-) at 50µg/mL,[5],0.108%
same,% cells upper right (ligand+ / antibody+) at 0.005µg/mL,[5],53.2%
same,% cells upper right (ligand+ / antibody+) at 0.05µg/mL,[5],53.5%
same,% cells upper right (ligand+ / antibody+) at 0.5µg/mL,[5],51.7%
same,% cells upper right (ligand+ / antibody+) at 5µg/mL,[5],25.9%
same,% cells upper right (ligand+ / antibody+) at 50µg/mL,[5],22.3%
B6,Kd,[6],2.9 nM
same,koff,[6],0.000356 s⁻¹
same,kon,[6],123000 M⁻¹ s⁻¹
same,Kd,[7],0.871 nM
same,koff,[7],0.000201 s⁻¹
same,kon,[7],231000 M⁻¹ s⁻¹
B7,Kd,[6],3.06 nM
same,koff,[6],0.000322 s⁻¹
same,kon,[6],105000 M⁻¹ s⁻¹
same,Kd,[7],3.96 nM
same,koff,[7],0.000787 s⁻¹
same,kon,[7],199000 M⁻¹ s⁻¹
